Tests used:
[1] = substrate: Nc1nc(F)nc2c1ncn2[C@@H]1O[C@H](CO)[C@@H](O)[C@H]1O; assay: (§1) Kinetic parameter in calf intestine adenosine deaminase.
[2] = substrate: Nc1ncnc2c1nnn2[C@H]1C[C@H](O)[C@@H](CO)O1; assay: as §1
[3] = substrate: COc1ncnc2c1nnn2[C@@H]1O[C@H](CO)[C@@H](O)[C@H]1O; assay: as §1
[4] = substrate: Nc1nc(F)nc2c1nnn2C1O[C@H](CO)[C@@H](O)[C@H]1O; assay: as §1
[5] = substrate: COc1ncnc2c1ncn2[C@@H]1O[C@H](CO)[C@@H](O)[C@@H]1O; assay: as §1
[6] = substrate: Nc1ncnc2c1nnn2[C@@H]1O[C@H](CO)[C@@H](O)[C@H]1O; assay: as §1
[7] = substrate: COC[C@H]1O[C@@H](n2cnc3c(O)nc(N)nc32)[C@H](OC)[C@@H]1OC; assay: as §1
[8] = substrate: COC[C@H]1O[C@@H](n2nnc3c(O)nc(N)nc32)[C@H](OC)[C@@H]1OC; assay: as §1
[9] = substrate: Nc1nc(N)c2ncn([C@@H]3O[C@H](CO)[C@@H](O)[C@H]3O)c2n1; assay: as §1

B1: Adenosine deaminase (Bos taurus), P56658 (protein)
chain: MAQTPAFNKPKVELHVHLDGAIKPETILYYGRKRGIALPADTPEELQNIIGMDKPLSLPEFLAKFDYYMPAIAGCREAVKRIAYEFVEMKAKDGVVYVEVRYSPHLLANSKVEPIPWNQAEGDLTPDEVVSLVNQGLQEGERDFGVKVRSILCCMRHQPSWSSEVVELCKKYREQTVVAIDLAGDETIEGSSLFPGHVKAYAEAVKSGVHRTVHAGEVGSANVVKEAVDTLKTERLGHGYHTLEDATLYNRLRQENMHFEVCPWSSYLTGAWKPDTEHPVVRFKNDQVNYSLNTDDPLIFKSTLDTDYQMTKNEMGFTEEEFKRLNINAAKSSFLPEDEKKELLDLLYKAYGMPSPASAEQCL
Km [1]: 81 µM | Km [2]: 220 µM | Km [3]: 140 µM | Km [4]: 250 µM | Km [5]: 50 µM | Km [6]: 250 µM | Km [7]: 42 µM | Km [8]: 22 µM | Km [9]: 33 µM

From ChEMBL document CHEMBL1122375, “Synthesis and biological evaluation of 2-fluoro-8-azaadenosine and related compounds” (J Med Chem, 1983)
